By stoichiometry N is commonly meant the number of molecules, sites or subunits per partner or assembly.

In this test the target is H. pylori-bullfrog hybrid ferritin nanoparticle (bullfrog (Rana catesbeiana) | Helicobacter pylori). As to the kind of experiment: SEC. (In general: In gel filtration, larger molecules generally elute earlier.)

For the substance “H. pylori-bullfrog hybrid ferritin nanoparticle”, the stoichiometry N worked out at 24.

For the origin of these results see article PMC10653821.
